Data: US20230301998A1 (SANFORD BURNHAM PREBYS MEDICAL DISCOVERY INSTITUTE, published 2023)

Experiments:
Assay in all cases: Flag IP of Flag-SHARPIN from WM115 lysate, on-bead tryptic digestion, LC/MS-MS
PFKFB3 = target: T1, PFKFB3 (human, UniProt Q16875 1-520, limits assumed)
T1 construct: endogenous protein co-purified from WM115 lysate
Experimental: (§1) To identify SHARPIN-interacting proteins, WM115 cells were transfected with Flag-tagged SHARPIN or control empty plasmid. Cell lysates were prepared using 1% Triton X-100 buffer [50 mM Tris-HCl, pH7.4, 1% (v/v) Triton X-100, 150 mM NaCl, 1 mM EDTA, and protease and phosphatase inhibitor cocktails (Thermo Fisher Scientific)]. Lysates were pre-cleared with protein A/G beads (Santa Cruz Biotechnology) for 1 h at 4° C. followed by immunoprecipitation using FLAG-M2-agarose beads (Sigma-Aldrich) overnight at 4° C. Beads were then washed with lysis buffer and TBS containing lx protease inhibitor cocktail before being subjected to on-bead tryptic digestion followed by mass spectrometry. In Vitro Methylation Assay.

XRCC5 = target: T2, XRCC5 (human, UniProt P13010 2-732)
T2 construct: endogenous protein co-purified from WM115 lysate
Experimental: as §1

MYH10 = target: T3, MYH10 (human, UniProt P35580 1-1976, limits assumed)
T3 construct: endogenous protein co-purified from WM115 lysate
Experimental: as §1

RNF31 = target: T4, RNF31 (human, UniProt Q96EP0 1-1072)
T4 construct: endogenous protein co-purified from WM115 lysate
T4 sequence (looked up): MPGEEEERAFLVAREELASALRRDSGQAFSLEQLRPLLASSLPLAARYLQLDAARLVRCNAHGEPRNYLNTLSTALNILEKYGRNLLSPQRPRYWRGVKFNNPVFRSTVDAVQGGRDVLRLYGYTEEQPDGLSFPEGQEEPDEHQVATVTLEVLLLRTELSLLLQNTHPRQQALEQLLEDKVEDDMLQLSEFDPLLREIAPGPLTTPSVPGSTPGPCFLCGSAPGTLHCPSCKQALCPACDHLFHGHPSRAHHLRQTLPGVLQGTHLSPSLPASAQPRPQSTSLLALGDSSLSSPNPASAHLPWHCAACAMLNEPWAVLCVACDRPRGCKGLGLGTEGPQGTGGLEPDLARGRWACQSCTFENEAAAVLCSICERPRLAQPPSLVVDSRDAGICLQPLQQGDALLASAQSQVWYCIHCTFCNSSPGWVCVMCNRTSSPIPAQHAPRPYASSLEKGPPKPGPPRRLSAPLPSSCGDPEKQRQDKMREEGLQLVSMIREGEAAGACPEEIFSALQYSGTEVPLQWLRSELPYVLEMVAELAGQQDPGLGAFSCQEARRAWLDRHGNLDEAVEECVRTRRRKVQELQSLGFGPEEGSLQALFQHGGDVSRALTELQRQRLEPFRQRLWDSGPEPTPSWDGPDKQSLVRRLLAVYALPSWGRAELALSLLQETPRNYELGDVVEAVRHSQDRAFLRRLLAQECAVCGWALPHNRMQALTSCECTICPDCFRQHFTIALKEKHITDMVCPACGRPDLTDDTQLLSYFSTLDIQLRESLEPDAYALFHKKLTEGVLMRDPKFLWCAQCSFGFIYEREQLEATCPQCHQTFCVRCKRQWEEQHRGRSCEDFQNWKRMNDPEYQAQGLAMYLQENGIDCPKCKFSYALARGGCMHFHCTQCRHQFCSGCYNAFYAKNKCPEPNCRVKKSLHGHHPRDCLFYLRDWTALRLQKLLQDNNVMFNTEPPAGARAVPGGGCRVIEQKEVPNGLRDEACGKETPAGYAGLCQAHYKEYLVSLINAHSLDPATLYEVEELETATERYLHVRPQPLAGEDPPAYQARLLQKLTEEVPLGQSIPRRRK
Experimental: as §1

PRPF31 = target: T5, PRPF31 (human, UniProt Q8WWY3 1-499)
T5 sequence (looked up): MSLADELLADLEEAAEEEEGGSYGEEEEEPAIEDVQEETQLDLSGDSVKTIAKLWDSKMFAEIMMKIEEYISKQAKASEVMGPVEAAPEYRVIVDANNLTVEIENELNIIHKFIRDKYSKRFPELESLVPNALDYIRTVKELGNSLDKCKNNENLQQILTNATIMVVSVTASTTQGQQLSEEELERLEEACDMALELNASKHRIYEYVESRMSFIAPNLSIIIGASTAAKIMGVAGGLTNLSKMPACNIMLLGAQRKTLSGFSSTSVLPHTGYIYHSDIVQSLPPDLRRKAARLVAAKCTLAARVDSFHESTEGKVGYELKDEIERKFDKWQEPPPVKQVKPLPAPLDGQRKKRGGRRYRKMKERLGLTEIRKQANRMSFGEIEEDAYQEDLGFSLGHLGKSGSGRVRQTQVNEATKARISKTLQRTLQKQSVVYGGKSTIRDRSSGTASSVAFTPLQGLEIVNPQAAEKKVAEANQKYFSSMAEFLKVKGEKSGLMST
Experimental: as §1

PDIA6 = target: T6, PDIA6 (human, UniProt Q15084 20-440)
T6 construct: endogenous protein co-purified from WM115 lysate
T6 sequence (looked up): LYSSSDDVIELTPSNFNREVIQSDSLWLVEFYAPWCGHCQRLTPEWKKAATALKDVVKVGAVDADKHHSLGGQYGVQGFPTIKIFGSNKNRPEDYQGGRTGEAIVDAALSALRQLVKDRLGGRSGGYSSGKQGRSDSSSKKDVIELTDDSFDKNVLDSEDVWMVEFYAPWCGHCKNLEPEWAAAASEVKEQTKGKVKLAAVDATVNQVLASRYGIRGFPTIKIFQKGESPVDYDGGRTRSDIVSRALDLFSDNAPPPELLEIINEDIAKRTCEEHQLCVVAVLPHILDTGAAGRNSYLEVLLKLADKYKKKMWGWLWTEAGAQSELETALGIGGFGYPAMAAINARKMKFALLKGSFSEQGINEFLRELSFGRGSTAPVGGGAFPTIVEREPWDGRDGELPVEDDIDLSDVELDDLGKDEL
Experimental: as §1

TUBB = target: T7, TUBB (human, UniProt P07437 1-444)
T7 construct: endogenous protein co-purified from WM115 lysate
Experimental: as §1

XRCC6 = target: T8, XRCC6 (human, UniProt P12956 2-609)
T8 construct: endogenous protein co-purified from WM115 lysate
Experimental: as §1

Measured: binding result

T1 sequence (Q16875 whole entry): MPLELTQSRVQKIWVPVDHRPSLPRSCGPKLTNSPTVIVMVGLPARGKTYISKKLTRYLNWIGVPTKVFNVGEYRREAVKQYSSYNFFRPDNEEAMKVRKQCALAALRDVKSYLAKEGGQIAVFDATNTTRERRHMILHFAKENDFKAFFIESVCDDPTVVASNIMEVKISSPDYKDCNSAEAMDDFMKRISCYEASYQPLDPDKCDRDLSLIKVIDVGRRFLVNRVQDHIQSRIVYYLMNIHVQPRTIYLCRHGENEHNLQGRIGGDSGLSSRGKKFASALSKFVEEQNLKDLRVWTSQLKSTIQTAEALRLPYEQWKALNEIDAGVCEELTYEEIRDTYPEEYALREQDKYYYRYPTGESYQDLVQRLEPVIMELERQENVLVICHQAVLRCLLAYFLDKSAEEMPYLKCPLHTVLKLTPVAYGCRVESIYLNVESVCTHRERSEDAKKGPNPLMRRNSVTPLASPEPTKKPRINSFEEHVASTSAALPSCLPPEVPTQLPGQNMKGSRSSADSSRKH
T8 sequence (P12956 2-609 limits assumed): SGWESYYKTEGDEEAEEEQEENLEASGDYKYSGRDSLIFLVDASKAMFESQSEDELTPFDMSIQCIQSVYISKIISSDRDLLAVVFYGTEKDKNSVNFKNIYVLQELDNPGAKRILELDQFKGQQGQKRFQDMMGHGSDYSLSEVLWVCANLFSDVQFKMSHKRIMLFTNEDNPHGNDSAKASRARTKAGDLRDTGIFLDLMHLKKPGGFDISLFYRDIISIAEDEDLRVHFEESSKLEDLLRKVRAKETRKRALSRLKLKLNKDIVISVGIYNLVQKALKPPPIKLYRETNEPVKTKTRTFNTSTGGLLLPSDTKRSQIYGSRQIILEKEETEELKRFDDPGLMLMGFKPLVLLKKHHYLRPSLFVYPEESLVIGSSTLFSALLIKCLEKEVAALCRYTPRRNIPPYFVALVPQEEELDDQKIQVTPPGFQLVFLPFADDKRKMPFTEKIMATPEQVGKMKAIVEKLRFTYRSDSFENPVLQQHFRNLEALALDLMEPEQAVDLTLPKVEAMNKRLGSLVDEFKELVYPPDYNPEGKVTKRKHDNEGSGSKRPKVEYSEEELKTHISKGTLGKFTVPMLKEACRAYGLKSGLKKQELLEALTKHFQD
T2 sequence (P13010 2-732 limits assumed): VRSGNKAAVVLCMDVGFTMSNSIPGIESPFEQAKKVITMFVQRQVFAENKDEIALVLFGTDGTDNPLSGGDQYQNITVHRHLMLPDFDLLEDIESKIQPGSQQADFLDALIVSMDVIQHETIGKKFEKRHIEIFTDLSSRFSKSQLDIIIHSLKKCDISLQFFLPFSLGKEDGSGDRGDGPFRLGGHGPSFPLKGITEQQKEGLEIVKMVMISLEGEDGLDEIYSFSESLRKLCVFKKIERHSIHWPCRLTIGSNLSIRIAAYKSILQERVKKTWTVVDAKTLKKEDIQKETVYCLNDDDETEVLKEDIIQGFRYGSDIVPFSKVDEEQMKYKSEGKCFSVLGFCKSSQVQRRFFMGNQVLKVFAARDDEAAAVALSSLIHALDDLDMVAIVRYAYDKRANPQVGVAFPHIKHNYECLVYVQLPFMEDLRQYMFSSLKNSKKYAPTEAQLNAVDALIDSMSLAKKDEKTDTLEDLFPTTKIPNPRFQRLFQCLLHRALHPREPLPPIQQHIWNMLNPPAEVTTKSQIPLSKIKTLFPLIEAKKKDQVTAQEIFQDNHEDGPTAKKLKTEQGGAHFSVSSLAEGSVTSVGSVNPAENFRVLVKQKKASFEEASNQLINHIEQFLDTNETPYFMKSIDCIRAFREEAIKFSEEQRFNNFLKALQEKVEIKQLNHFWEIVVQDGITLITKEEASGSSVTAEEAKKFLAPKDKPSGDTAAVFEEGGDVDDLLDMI
T7 sequence (P07437 whole entry): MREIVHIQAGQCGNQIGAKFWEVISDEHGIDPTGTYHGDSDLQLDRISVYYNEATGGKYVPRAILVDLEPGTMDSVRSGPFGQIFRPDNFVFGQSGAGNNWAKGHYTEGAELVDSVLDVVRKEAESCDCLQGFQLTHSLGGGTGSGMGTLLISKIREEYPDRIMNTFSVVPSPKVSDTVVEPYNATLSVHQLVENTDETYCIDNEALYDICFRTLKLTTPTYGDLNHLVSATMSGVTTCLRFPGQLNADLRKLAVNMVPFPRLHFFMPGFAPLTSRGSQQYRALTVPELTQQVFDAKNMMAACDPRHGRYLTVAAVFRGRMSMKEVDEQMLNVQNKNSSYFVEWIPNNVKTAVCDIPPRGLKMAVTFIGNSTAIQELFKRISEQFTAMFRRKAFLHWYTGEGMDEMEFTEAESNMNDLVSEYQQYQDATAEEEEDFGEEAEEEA
T3 sequence (P35580 whole entry): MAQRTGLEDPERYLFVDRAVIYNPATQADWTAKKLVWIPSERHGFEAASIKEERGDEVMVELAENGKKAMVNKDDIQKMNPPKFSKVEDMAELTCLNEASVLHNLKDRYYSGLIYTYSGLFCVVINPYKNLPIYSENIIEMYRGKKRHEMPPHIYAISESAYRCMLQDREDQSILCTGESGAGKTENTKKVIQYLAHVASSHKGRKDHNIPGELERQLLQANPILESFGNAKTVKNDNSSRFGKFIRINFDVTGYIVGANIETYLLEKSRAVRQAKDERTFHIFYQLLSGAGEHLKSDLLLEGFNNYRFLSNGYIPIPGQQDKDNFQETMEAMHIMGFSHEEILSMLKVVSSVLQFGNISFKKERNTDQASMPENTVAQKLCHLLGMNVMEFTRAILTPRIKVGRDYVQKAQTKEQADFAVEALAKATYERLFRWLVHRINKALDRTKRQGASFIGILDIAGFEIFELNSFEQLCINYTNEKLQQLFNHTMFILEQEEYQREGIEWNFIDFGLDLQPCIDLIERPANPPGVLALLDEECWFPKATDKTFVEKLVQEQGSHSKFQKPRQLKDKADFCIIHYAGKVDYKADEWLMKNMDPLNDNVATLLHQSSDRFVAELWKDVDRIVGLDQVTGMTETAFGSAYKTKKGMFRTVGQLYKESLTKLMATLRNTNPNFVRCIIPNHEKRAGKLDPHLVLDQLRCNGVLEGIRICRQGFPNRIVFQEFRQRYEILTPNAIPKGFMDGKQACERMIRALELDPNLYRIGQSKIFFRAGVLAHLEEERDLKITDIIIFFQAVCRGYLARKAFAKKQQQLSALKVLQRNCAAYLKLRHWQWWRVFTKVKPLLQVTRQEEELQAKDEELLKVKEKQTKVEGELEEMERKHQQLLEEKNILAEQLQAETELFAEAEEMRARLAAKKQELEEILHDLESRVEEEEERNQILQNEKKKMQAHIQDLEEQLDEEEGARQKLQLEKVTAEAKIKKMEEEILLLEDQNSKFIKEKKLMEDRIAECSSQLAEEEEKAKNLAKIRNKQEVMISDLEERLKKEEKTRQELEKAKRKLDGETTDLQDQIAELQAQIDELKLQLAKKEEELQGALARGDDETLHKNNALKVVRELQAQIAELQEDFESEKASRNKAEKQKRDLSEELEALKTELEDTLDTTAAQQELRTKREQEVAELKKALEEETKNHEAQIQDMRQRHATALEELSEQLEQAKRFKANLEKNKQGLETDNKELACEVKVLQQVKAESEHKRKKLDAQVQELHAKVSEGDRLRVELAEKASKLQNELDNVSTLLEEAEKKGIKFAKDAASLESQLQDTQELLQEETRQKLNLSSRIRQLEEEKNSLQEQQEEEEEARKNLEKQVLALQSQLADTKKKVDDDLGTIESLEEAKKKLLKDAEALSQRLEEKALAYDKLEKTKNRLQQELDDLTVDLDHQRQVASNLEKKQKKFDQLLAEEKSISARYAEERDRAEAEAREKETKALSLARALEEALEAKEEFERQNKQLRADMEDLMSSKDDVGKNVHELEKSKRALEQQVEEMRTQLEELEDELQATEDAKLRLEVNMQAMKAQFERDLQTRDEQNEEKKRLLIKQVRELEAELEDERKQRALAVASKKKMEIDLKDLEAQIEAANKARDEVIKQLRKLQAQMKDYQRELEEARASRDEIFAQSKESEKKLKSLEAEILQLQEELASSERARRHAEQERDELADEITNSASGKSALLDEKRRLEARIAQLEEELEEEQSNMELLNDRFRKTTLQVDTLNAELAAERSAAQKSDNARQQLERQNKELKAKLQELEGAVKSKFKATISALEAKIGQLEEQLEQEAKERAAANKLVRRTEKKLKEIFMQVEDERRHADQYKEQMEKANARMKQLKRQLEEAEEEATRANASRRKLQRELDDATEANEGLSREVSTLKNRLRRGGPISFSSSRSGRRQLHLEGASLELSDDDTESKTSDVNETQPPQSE

B1: Flag-tagged SHARPIN (other, human, UniProt Q9H0F6 1-387, looked up)
chain: MAPPAGGAAAAASDLGSAAVLLAVHAAVRPLGAGPDAEAQLRRLQLSADPERPGRFRLELLGAGPGAVNLEWPLESVSYTIRGPTQHELQPPPGGPGTLSLHFLNPQEAQRWAVLVRGATVEGQNGSKSNSPPALGPEACPVSLPSPPEASTLKGPPPEADLPRSPGNLTEREELAGSLARAIAGGDEKGAAQVAAVLAQHRVALSVQLQEACFPPGPIRLQVTLEDAASAASAASSAHVALQVHPHCTVAALQEQVFSELGFPPAVQRWVIGRCLCVPERSLASYGVRQDGDPAFLYLLSAPREAPATGPSPQHPQKMDGELGRLFPPSLGLPPGPQPAASSLPSPLQPSWSCPSCTFINAPDRPGCEMCSTQRPCTWDPLAAAST
notes: also called Flag-SHARPIN; not shown: FLAG tag
binds: all assays above
